The target of this assay is OsCBMIP-His (OsRMC-His), secreted from rice suspension-cultured cells (rice). As to the kind of experiment: BLI. (BLI is a label-free optical method that tracks binding on a fibre tip over time.)

The Kd is the constant that tells how readily two partners part at equilibrium. Read a high Kd as lower affinity. By koff is commonly meant a measure of how fast the partners let go of each other. One may read the kon as the second-order rate constant of association. The low end stands for slower complex formation, the high end for faster complex formation. “MoCel6A as used for binding kinetics (BLItz) (enzyme)” showed a Kd of 21.9 nM, a koff of 0.000845 s⁻¹ and a kon of 38900 M⁻¹ s⁻¹.
